The results in this text go back to article PMC3819287.

The target of the assay is J17 (pH-sensitive anti-PCSK9 mAb, variant of J16) engineered pH-sensitive variant of J16; substitutions not stated in this article (see ref 9). Nature of the assay: KinExA (kinetic exclusion assay), multi-curve global analysis. Conditions: pH 7.4; room temperature (approximately 23 C); 154 mM NaCl; PBS pH 7.4 (1 mM KH2PO4, 5.6 mM Na2HPO4, 154 mM NaCl). (In general: Kinetic exclusion samples the free partner from a solution-phase mixture.)

The KD is a measure of binding affinity in units of concentration. A higher KD goes with a looser complex. As to “rhPCSK9 (recombinant human proprotein convertase subtilisin/kexin type 9)”, the KD is 0.064 nM.
